In assay [1] the target is Human surfactant protein-A (SP-A) (human) (UniProt Q8IWL2). As to the kind of experiment: SEC; gel filtration HPLC, two Biosep-SEC-S 4000 columns in series; SP-A (1.62 mg/ml) and α1-AT (1 mg/ml), 1:50 molar ratio, incubated 24 hrs at 37°C in phosphate buffer; eluted with 100 mM Na2HPO4, 2 mM CaCl2, pH 6.8.
Assay [2] has the same target.

For the substance “Wild-type α1-antitrypsin (M α1-AT) (from UniProt P01009 25-418) (natural protein)”, the stoichiometry N (molecules of α1-AT per molecule of SP-A) in assay [1] turned out to be 18. The same substance came in with a turnover number per inactivation of HNE, unmodified SP-A with α1-AT in assay [2] of 24.

For the origin of these results see paper PMC1343571.
